# Results published in US20220202899A1, “COMPOSITION FOR PREVENTION OR TREATMENT OF HAIR LOSS INCLUDING HAPLN1” (HAPLNSCIENCE INC., priority 2019, published 2022).
# B1: hyaluronan and proteoglycan link protein 1 (protein, UniProt P10915 16-354, looked up)
# Hyaluronan and proteoglycan …: DHLSDNYTLDHDRAIHIQAENGPHLLVEAEQAKVFSHRGGNVTLPCKFYRDPTAFGSGIHKIRIKWTKLTSDYLKEVDVFVSMGYHKKTYGGYQGRVFLKGGSDSDASLVITDLTLEDYGRYKCEVIEGLEDDTVVVALDLQGVVFPYFPRLGRYNLNFHEAQQACLDQDAVIASFDQLYDAWRGGLDWCNAGWLSDGSVQYPITKPREPCGGQNTVPGVRNYGFWDKDKSRYDVFCFTSNFNGRFYYLIHPTKLTYDEAVQACLNDGAQIAKVGQIFAAWKILGYDRCDAGWLADGSVRYPISRPRRRCSPTEAAVRFVGFPDKKHKLYGVYCFRAYN
# notes: extracellular matrix protein found in cartilage; stabilizes aggregates of hyaluronic acid and proteoglycans
# Legend:
# HAS2 = HAS2 protein in human hair germinal matrix cells deficient in endogenous HA (4-MU); type: cell-based; details: 4-MU-treated cells; HAPLN1 25 ng/mL; TGF-β2 2 ng/mL
# Description: 4-MU (4-methylumbelliferone) is an inhibitor of HA-producing hyaluronan synthase 2 (HAS2), which produces HA. In order to confirm the effect of HA produced in cells, HA production in cells was inhibited using 4-MU.
# (§1) The human hair germinal matrix cells, in which the endogenous HA was inhibited by treating 4-MU, were dispensed into a poly-D-lysine 6-well plate at a concentration of 5.0×10^4 per well and cultured for 24 hours. After 24 hours, the medium was removed and replaced with a new serum-free medium. HAPLN1 was treated with 25 ng/mL, and after 1 hour, TGF-β2 (2 ng/mL) was treated. After 23 hours, cells were collected, a lysis buffer (25 mM Tris-HCl, 1 mM EDTA, 0.1% Triton-X100, phosphatase inhibitor, and protease inhibitor) was added, and all the cells were broken through sonication. HAS2 and TβRII in the sample were measured using Western blotting. The optical density of each of HAS2 and TβRII was compared to that of GAPDH using a densitometer.
# [1] = system: human hair germinal matrix cells; experiment: Hair germinal matrix cell proliferating effect, CCK-8 (Example 13); type: cell-based; details: 25 ng/ml
# Description: In the same manner as described above, HAPLN1 (25 ng/ml), CX3CL1 (25 ng/ml), CDON (25 ng/ml) or minoxidil (10 μM), and human recombinant TGF-β2 were diluted to a final concentration of 2 ng/ml, and the medium of the group containing TGF-β2 was replaced by 200 μl. To reduce an experimental variation, 3 wells per group were treated (triplication).
# After incubation for 23 hours, the plate was removed from the incubator, and 20 μl of CCK-8 (WST-8) solution was added to the plate containing the medium and the reagent per 200 μl of the medium for the reaction to be carried out at 37° C. for 1 hour.
# Human hair germinal matrix cells were released in a poly-D-lysine-coated flask using a mesenchymal stem cell medium (MSCM), and cultured in a 5% CO2 incubator at 37° C. When the cells were about 90% full, the cells were detached with a 0.05% Trypsin/EDTA solution, and then only the cells were recovered by centrifugation at 1000 rpm for 3 minutes. The recovered cells were dispensed into 96-well poly-D-lysine coated plates (BD bioscience) at 2.0×10^3 per well and cultured for 24 hours, and the final concentrations of HAPLN1, CX3CL1 and CDON were diluted to 25 ng/ml in a serum-free medium. The subsequent process was performed in the same manner as the experiment for the dermal papilla cells to measure the absorbance, and the results are shown in FIG. 22.
# p-ERK1/2 = p-ERK1/2 in human hair germinal matrix cells stimulated with TGF-β2 (Western blotting); type: cell-based; details: TGF-β2 2 ng/mL, 1 hour
# Description: (§2) Human hair germinal matrix cells were dispensed into a poly-D-lysine 6-well plate at a concentration of 5.0×10^4 per well and cultured for 24 hours. After 24 hours, the medium was removed and replaced with a new serum-free medium. HAPLN1 was treated with 25 ng/mL and HA with 25 μg/mL, incubated for 23 hours, and then stimulated with TGF-β2 (2 ng/mL) for 1 hour. After collecting cells, a lysis buffer (25 mM Tris-HCl, 1 mM EDTA, 0.1% Triton-X100, phosphatase inhibitor, and protease inhibitor) was added, and all the cells were broken through sonication. p-ERK1/2, p-Smad2, p-MEK1/2, and p-c-Raf in the sample were measured using Western blotting. Optical densities of p-ERK1/2, p-Smad2, p-MEK1/2, and p-c-Raf were compared to those of ERK1/2, Smad2/3, MEK1, and c-Raf using a densitometer. Here, ERK1/2, Smad2/3, MEK1, and c-Raf were used as loading controls.
# hair growth cycle = experiment: Intraperitoneal systemic administration of HAPLN1, mouse hair growth; type: in vivo; details: 20-month-old C57 mice; 0.1 mg/kg intraperitoneally once every 3 days
# Description: HAPLN1 in the body decreases with age. HAPLN1 was administered to 20-month-old C57 mice with a decrease in HAPLN1 in the body.
# Since C57 mice had different hair growth cycles, the cycles of all mice were uniformly adjusted through two hair growth cycles (see the schedule of FIG. 19). Thereafter, HAPLN1 was injected intraperitoneally at 0.1 mg/kg once every 3 days.
# p-Smad2 = p-Smad2 in human hair germinal matrix cells stimulated with TGF-β2 (Western blotting); type: cell-based; details: HAPLN1 25 ng/mL and/or HA 25 μg/mL; TGF-β2 2 ng/mL, 1 hour
# Description: as §2
# p-MEK1/2 = p-MEK1/2 in human hair germinal matrix cells stimulated with TGF-β2 (Western blotting); type: cell-based; details: HAPLN1 25 ng/mL and/or HA 25 μg/mL; TGF-β2 2 ng/mL, 1 hour
# Description: as §2
# TβRII = TβRII protein after HAPLN1 and/or HA in CD44-deficient human hair germinal matrix cells; type: cell-based; details: after CD44 siRNA; HAPLN1 25 ng/mL and/or HA 25 μg/mL; TGF-β2 2 ng/mL, 23 hours
# Description: The human hair germinal matrix cells, which were made to be deficient in CD44 by using CD44 siRNA, were dispensed into a poly-D-lysine 6-well plate at a concentration of 5.0×10^4 per well and cultured for 24 hours. After 24 hours, the medium was removed and replaced with a low-serum medium. CD44 siRNA and scrambled siRNA were added at a concentration of 25 pmol per well and incubated for 24 hours. After the siRNA and the medium were all removed, the medium was replaced with a serum-free medium having HAPLN1 (25 ng/mL) or HA (25 μg/mL) added thereto, and cultured for 1 hour. TGF-β2 (2 ng/mL) was treated and incubated for 23 hours. After collecting cells, a lysis buffer (25 mM Tris-HCl, 1 mM EDTA, 0.1% Triton-X100, phosphatase inhibitor, and protease inhibitor) was added, and all the cells were broken through sonication. TβRII in the sample was measured using Western blotting. The optical density of TβRII was compared to that of GAPDH using a densitometer.
# p-c-Raf = p-c-Raf in human hair germinal matrix cells stimulated with TGF-β2 (Western blotting); type: cell-based; details: HAPLN1 25 ng/mL and/or HA 25 μg/mL; TGF-β2 2 ng/mL, 1 hour
# Description: as §2
# TβRI = TβRI protein in human hair germinal matrix cells treated with HAPLN1 and/or HA, then TGF-β2 (Western blotting); type: cell-based; details: HAPLN1 25 ng/mL; TGF-β2 2 ng/mL
# Description: as §1, with “Human” for “The human”, “cells” for “cells, in which the endogenous HA was inhibited by treating 4-MU,”, “ng/mL, HA was treated with 25 μg/mL,” for “ng/mL,”, “TβRI” for “HAS2”, “of” for “of each of HAS2 and”
molecule,measurement,setting,value
B1,HAS2 level,HAS2,recovered
same,hair germinal matrix cell proliferation (absorbance at 450 nm),[1]; absence of TGF-β2,significant hair germinal matrix cell proliferating activity
same,hair germinal matrix cell proliferation (absorbance at 450 nm),[1]; presence of TGF-β2 (2 ng/ml),particularly superior hair germinal matrix cell proliferating activity
same,ERK1/2 signaling (p-ERK1/2 compared to ERK1/2),"p-ERK1/2; HAPLN1 25 ng/mL and/or HA 25 μg/mL, 23 hours",activated
same,"ERK1/2 signaling, HAPLN1 treated together with HA",p-ERK1/2; HAPLN1 25 ng/mL with HA 25 μg/mL,enhanced the activation of ERK1/2 signaling of HA
same,entry into the anagen phase,hair growth cycle,entered the anagen phase in a short period of time
same,phosphorylation of Smad2,p-Smad2,no change
same,MEK1/2 activity (p-MEK1/2 compared to MEK1),p-MEK1/2,increased activities
same,TβRII protein in CD44-deficient cells,TβRII,not confirmed that TβRII was recovered
same,c-Raf activity (p-c-Raf compared to c-Raf),p-c-Raf,increased activities
same,concentration of TβRI,TβRI,no change
